Experimental data from patent publication US20210246218A1 (LYVGEN BIOPHARMA SUZHOU, published 2021).
Where “and” joins values, the source holds several entries; their conditions need not be identical. Equal entries are not always repeated.

Legend:
[1] = target: T1, human FcγRIIA-His131 on CHO-K1 cells (human, UniProt P12318 34-317); experiment: flow cytometry on CHO-huFcγRIIA-H131 cells, PE anti-human Fc F(ab')2
T1 construct: whole, on cells; Allotype His131; also called CHO-K1-huFcγRIIA-His131; CHO-huFcγRIIA-H131
T1 sequence (looked up): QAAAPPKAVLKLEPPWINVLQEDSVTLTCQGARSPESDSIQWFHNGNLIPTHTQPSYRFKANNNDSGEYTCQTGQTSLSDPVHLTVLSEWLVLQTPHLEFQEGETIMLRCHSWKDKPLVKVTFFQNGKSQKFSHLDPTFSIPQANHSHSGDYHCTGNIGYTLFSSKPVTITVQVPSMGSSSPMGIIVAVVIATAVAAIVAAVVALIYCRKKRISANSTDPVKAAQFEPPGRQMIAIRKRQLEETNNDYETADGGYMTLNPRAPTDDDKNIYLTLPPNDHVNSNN
Method: The plate was mixed and incubated in the dark for 2 hours at 4° C.

[2] = target: T2, recombinant human CD137 receptor protein (human, UniProt Q07011 24-186); experiment: ELISA, human CD137 protein coated; average, n=6
T2 construct: Coated on ELISA plates; also called recombinant human CD137 protein
Method: The human or cynomolgus monkey CD137 receptor protein was diluted in DPBS to 1 μg/mL, and then coated onto an ELISA plate (Corning, Catalog number: 9018, high binding) with a volume of 100 μL (0.1 μg) or 50 μL (0.05 μg) per well, and incubated at 4° C. overnight. The plate was decanted and washed once; assay diluent was added 200 μL/well. After a one-hour incubation at room temperature, the plate was washed with PBST one time. […] The plate was incubated one hour at room temperature and then washed three times with PBST. Goat anti-human IgG-H+L HRP conjugated at 1:100,000 dilution was added to the plate at 100 μL/well. The plate was then incubated one hour at room temperature followed by washing with PBST four times. The TMB substrate solution was added at 100 μL/well. The color was allowed to develop for 15 minutes, and was stopped with 100 μL/well 2N H₂SO₄. Absorbance at 450 nm and 620 nm was determined by a Tecan F200 Pro reader.
Graphpad 7.0, “[Agonist] vs. response—Variable slope (four parameters)” was used to plot the binding data and calculate binding EC₅₀ values.

Ly050 [3] = target: T3, Ly050; experiment: ELISA, CD137 protein coated, clone 3712 titrated; full sigmoid, plateau about 1.9
T3 chain: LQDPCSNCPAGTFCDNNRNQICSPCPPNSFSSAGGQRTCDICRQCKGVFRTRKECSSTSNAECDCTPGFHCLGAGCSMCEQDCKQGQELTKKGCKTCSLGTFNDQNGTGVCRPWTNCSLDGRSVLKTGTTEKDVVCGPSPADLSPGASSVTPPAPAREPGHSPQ
Method: For the data shown in FIGS. 16C-D, chimeric CD137 receptor protein samples were diluted in DPBS to 5 μg/mL and then coated onto an ELISA plate (Corning, Catalog number: 9018, high binding) at 50 μL (0.25 μg) per well, and incubated at 4° C. overnight. The plate was decanted and washed once; assay diluent was added at 200 μL/well. After a 1-hour incubation at room temperature, the plate was washed with PBST one time. […] The plate was incubated 1 hour at room temperature and then washed three times with PBST. Goat anti-human IgG-H+L HRP-conjugated at 1:100,000 dilution or goat anti-mouse IgG (H+L) secondary antibody, HRP, 10 at 1:50,000 dilution was added to the plate at 100 μL/well. The plate was incubated 1 hour at room temperature followed by washing with PBST four times. The TMB substrate solution was added 100 μL/well. The color was permitted to develop for 15 minutes and then 100 μL/well 2N H2SO4 was added to terminate the reaction. Absorbance at 450 nm and 620 nm was determined by a Tecan F200 Pro reader.

Ly048 = target: T4, Ly048; experiment: ELISA, clone 3712-IgG1v coated, CD137 protein titrated (EC50 is a concentration of the CD137 protein); curve only begins to rise: about 0.63 at 100000 ng/mL, no plateau, the fitted EC50 lies beyond the range tested
T4 chain: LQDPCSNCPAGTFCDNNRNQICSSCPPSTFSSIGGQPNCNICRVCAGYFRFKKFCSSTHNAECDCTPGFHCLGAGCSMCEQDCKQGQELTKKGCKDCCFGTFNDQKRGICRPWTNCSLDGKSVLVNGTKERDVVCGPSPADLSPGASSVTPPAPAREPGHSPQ
Method: (§1) The plate was decanted and washed once; assay diluent was added 200 μL/well. After one-hour incubation at room temperature, the plate was washed with PBST one time. CD137 receptor human/mouse chimeras were diluted in assay diluent to 100 or 10 μg/mL, and then a 4-fold serial dilution in assay diluent for 11 points to final concentrations of 100000, 25000, 6250, 1562.5, 390.63, 97.66, 24.41, 6.10, 1.53, 0.38 and 0.095 ng/mL or 10000, 2500, 625, 156.25, 39.06, 9.77, 2.44, 0.61, 0.15, 0.038 and 0.0095 ng/mL. The diluted CD137 receptor was added to the assay plate, 50 μL/well, in duplicate. The plate was incubated one hour at room temperature and then washed three times with PBST. Goat anti-human IgG-H+L HRP conjugated at 1:100,000 20 dilution was added to the plate at 100 μL/well. The plate was then incubated one hour at room temperature followed by washing with PBST four times. The TMB substrate solution was added at 100 μL/well. The color was allowed to develop for 15 minutes, and was stopped with 100 μL/well 2N H2SO4. Absorbance at 450 nm and 620 nm was determined by a Tecan F200 Pro reader.

[4] = target: T2, recombinant human CD137 receptor protein; experiment: ELISA, clone 3712-IgG1v coated, huCD137 titrated (EC50 is a concentration of the CD137 protein); full sigmoid, plateau about 1.9
Target sequence in this assay (Q07011 24-186 limits assumed): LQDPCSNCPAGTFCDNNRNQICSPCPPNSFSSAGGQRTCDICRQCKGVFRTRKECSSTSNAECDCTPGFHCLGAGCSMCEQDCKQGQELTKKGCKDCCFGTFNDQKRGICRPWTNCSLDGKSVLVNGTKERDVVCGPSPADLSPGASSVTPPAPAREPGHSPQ

Ly050 [5] = target: T3, Ly050; experiment: ELISA, clone 3712-IgG1v coated, CD137 protein titrated (EC50 is a concentration of the CD137 protein); full sigmoid, plateau about 2.2
Method: as §1

binding result [1]: no binding (tested: 100 µg/mL) | EC50 [2]: 0.37 nM and 0.0529 µg/mL | EC50 (Ly050 [3]): 0.0722 µg/mL | EC50 (Ly048): 486 µg/mL | EC50 [4]: 0.0562 µg/mL | EC50 (Ly050 [5]): 0.00339 µg/mL
B1: Clone 3712-IgG1v (IgG1v/kappa) (antibody)
heavy: QVQLVQSGAEVKKPGASVKVSCKASGYTFAGFEMHWVRQAPGQGLEWMGAIDPKTGGTDYNQKFKDRVTMTRDTSISTAYMELSRLRSDDTAVYYCARDLGYFDVWGQGTLVTVSSASTKGPSVFPLAPSSKSTSGGTAALGCLVKDYFPEPVTVSWNSGALTSGVHTFPAVLQSSGLYSLSSVVTVPSSSLGTQTYICNVNHKPSNTKVDKKVEPKSCDKTHTCPPCPAPELLGPSVFLFPPKPKDTLMISRTPEVTCVVVDVEHEDPEVKFNWYVDGVEVHNAKTKPREEQYNSTYRVVSVLTVLHQDWLNGKEYKCKVSNKALPAPIEKTISKAKGQPREPQVYTLPPSREEMTKNQVSLTCLVKGFYPSDIAVEWESNGQPENNYKTTPPVLDSDGSFFLYSKLTVDKSRWQQGNVFSCSVMHEALHNHYTQKSLSLSPGK
light: DIQMTQSPSSLSASVGDRVTITCRASQDIRSNLNWYQQKPGGAVKLLIYYTSRLHSGVPSRFSGSGSGTDYTLTISSLQPEDFATYFCQQSEKLPRTFGGGTKVEIRRTVAAPSVFIFPPSDEQLKSGTASVVCLLNNFYPREAKVQWKVDNALQSGNSQESVTEQDSKDSTYSLSSTLTLSKADYEKHKVYACEVTHQGLSSPVTKSFNRGEC
notes: copies: 2 + 2
